Results on two molecules are retold here after paper PMC10499537 (Biomedicine & pharmacotherapy = Biomedecine & …, 2023).

In assay [1] the target is full recombinant ADAM10 ECD (species not named for the experiment) (Bos taurus, assumed, UniProt Q10741). As to the kind of experiment: BLI.
Assay [2] concerns the target human ADAM17 D+C (482-648) (Homo sapiens, UniProt P78536). As to the kind of experiment: ELISA. On the technique in general: In an ELISA, binding on a coated surface is turned into a signal by an enzyme label.
Assay [3] has as its target human ADAM19 D+C construct (438-646) (Homo sapiens, UniProt Q9H013). The experiment in a line: ELISA.
The target of assay [4] is T1, ADAM10 D+C domains construct (species not named for the experiment) (Bos taurus, assumed).
T1 chain: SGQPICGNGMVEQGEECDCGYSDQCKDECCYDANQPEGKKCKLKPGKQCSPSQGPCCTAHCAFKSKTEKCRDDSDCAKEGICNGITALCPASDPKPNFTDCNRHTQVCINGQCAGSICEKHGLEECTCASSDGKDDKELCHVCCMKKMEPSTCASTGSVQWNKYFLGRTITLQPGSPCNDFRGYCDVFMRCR
The experiment in a line: ELISA.

Sequence of full recombinant ADAM10 ECD (species not named for the experiment) (Q10741 20-672): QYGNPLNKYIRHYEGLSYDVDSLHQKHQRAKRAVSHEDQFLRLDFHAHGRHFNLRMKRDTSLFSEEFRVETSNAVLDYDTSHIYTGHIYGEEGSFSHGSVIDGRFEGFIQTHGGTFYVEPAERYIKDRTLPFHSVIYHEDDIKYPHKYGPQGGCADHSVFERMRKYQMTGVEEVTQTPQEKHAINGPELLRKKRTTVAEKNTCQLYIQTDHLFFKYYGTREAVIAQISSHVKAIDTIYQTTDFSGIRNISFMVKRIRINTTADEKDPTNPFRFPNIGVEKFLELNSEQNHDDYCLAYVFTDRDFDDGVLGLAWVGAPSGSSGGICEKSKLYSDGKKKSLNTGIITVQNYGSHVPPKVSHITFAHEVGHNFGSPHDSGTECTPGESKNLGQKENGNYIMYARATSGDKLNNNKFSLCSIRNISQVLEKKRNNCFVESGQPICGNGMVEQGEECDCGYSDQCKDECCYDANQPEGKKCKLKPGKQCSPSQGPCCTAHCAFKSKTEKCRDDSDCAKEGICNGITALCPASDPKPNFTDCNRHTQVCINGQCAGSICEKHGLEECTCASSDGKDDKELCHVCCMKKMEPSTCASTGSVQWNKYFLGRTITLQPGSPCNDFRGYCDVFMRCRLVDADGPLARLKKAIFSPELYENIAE
Sequence of human ADAM19 D+C construct (438-646) (Q9H013 438-646): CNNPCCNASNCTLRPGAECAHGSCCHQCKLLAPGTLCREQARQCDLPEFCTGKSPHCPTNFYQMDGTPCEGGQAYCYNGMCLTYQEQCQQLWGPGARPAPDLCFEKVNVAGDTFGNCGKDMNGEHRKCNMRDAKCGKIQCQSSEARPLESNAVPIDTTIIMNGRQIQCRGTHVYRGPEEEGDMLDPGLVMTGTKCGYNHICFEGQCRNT
Sequence of human ADAM17 D+C (482-648) (P78536 482-648): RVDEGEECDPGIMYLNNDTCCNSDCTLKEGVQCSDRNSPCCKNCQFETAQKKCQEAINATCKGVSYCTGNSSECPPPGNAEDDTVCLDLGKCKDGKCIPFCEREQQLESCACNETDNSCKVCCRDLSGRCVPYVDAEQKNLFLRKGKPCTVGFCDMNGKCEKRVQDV

B1: fully human anti-ADAM10 monoclonal antibody 1H5 (IgG) (antibody, V domains shown)
VH: QVQLVESGGGLVKPGGSLRLSCAASGFTFSDYYMSWIRQAPGKGLEWVSYISSSGSTIYYADSVKGRFTISRDNAKNSLYLQMNSLRAEDTAVYYCARDFYDSKIFDYWGQGTLVTVSS
VL: DIQMTQSPSSLSASVGDRVTITCRASQSISSYLNWYQQKPGKAPKLLIYAASSLQSGVPSRFSGSGSGTDFTLTISSLQPEDVGVYYCMEGLKTPFTFGPGTKLEIK
Consider B1, for which the Kd (as a rule, the free concentration of one partner at which half of the binding sites on the other are occupied at equilibrium, for simple one-to-one binding) in assay [1] was about 200 nM. In addition, the binding result in assay [2] and in assay [3] was “no binding” in each case.

B2: murine anti-ADAM10 monoclonal antibody 8C7 (IgG) (antibody, V domains shown)
VH: QVQLEESGAELARPGSSVKLSCKASGYTFTNYWLQWVKQRTGQGLEWIGAIYPRDGDAKYSQKFKDKASLTVNESSSTAYMHLSALASEDSAVYYCARANYGLYYAMDRWGQGTSVTVSS
VL: DIFLTQSPANMSVSPGERVSFSCRASQNIGTNIHWYQQRTNGSPRLLIKYASESISGIPSRFSGSGSGTDFILSINTVESEDIAVYFCQQSNRWPFTFGSGTKLEVI
For B2, the binding result in assay [4] was “binds”.
